# According to article PMC2932838 (Biochemistry, 2010):
# Read-outs that look alike come from different tables or passages of the source.
# B1: Fibrin-derived D-D fragment (domain or fragment)
# chain 1: VSEDLRSRIEVLKRKVIEKVQHIQLLQKNVRAQLVDMKRLEVDIDIKIRSCRGSCSRALAREVDLKDYEDQQKQLEQVIAKDLLPSR
# chain 2: DNENVVNEYSSELEKHQLYIDETVNSNIPTNLRVLRSILENLRSKIQKLESDVSAQMEYCRTPCTVSCNIPVVSGKECEEIIRKGGETSEMYLIQPDSSVKPYRVYCDMNTENGGWTVIQNRQDGSVDFGRKWDPYKQGFGNVATNTDGKNYCGLPGEYWLGNDKISQLTRMGPTELLIEMEDWKGDKVKAHYGGFTVQNEANKYQISVNKYRGTAGNALMDGASQLMGENRTMTIHNGMFFSTYDRDNDGWLTSDPRKQCSKEDGGGWWYNRCHAANPNGRYYWGGQYTWDMAKHGTDDGVVWMNWKGSWYSMRKMSMKIRPFFPQQ
# chain 3: KMLEEIMKYEASILTHDSSIRYLQEIYNSNNQKIVNLKEKVAQLEAQCQEPCKDTVQIHDITGKDCQDIANKGAKQSGLYFIKPLKANQQFLVYCEIDGSGNGWTVFQKRLDGSVDFKKNWIQYKEGFGHLSPTGTTEFWLGNEKIHLISTQSAIPYALRVELEDWNGRTSTADYAMFKVGPEADKYRLTYAYFAGGDAGDAFDGFDFGDDPSDKFFTSHNGMQFSTWDNDNDKFEGNCAEQDGSGWWMNKCHAGHLNGVYYQGGTYSKASTPNGYDNGIIWATWKTRWYSMKKTTMKIIPFNRLTIGEGQQHHLGGAK
# modifications: covalent γ-γ cross-linking between the D regions
# How the values were obtained:
# Assay in all cases: ELISA
# [1] = target: T1, Biotinylated human α2-antiplasmin (Asn-α2-AP form) (human, UniProt P08697 40-491, biotin (EZ-Link Sulfo-NHS-Biotinylation Kit), sites not stated)
# T1 sequence (looked up): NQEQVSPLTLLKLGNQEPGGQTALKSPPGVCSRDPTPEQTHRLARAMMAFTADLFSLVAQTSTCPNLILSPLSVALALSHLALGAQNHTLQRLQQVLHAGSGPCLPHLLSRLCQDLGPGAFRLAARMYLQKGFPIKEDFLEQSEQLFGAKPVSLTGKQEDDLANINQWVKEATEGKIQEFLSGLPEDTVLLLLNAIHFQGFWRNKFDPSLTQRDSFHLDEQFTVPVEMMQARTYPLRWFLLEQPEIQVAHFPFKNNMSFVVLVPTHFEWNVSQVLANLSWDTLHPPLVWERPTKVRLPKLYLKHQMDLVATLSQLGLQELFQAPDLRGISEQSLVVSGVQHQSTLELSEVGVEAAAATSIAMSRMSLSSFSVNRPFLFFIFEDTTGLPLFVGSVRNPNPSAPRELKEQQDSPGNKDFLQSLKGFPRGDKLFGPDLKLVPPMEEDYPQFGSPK
# [2] = target: T1, Biotinylated human α2-antiplasmin …; remark: listed apart in the source
# [3] = target: T1, Biotinylated human α2-antiplasmin …; remark: listed apart in the source
# [4] = target: T1, Biotinylated human α2-antiplasmin …; remark: listed apart in the source
binder,measurement,setting,value
B1,Kd,[1],98 nM
same,Kd,[2],105 nM
same,Kd,[3],5.5 nM
same,Kd,[4],94 nM
